Results taken from patent US20210309745A1 (TAYU HUAXIA BIOTECH MEDICAL GROUP, published 2021).

Biological target: hPD-L1 (antigen of the Fortebio Octet assay) (human, UniProt Q9NZQ7 19-238, limits assumed)
Assay: BLI, Fortebio Octet; format not stated
Source text: The anti-hPD-L1 scFv-hFc Wt and scFv-hFc Mt antibodies were identified by SDS Page Gel […]. […] The binding affinities of the scFv-hFc antibodies to hPD-L1, as compared to that of the parental antibody were examined by FACS and the results are shown in FIG. 7. […] The binding affinities and kinetics of the scFv-hFc antibodies (scFv-hFc Wt and scFv-hFc Mt) to hPD-L1, as compared to that of the parental antibody (anti-PD-L1 IgG1), were further analyzed using the Fortebio Octet system.

Chain of hPD-L1 (antigen of the Fortebio Octet assay) (Q9NZQ7 19-238 limits assumed): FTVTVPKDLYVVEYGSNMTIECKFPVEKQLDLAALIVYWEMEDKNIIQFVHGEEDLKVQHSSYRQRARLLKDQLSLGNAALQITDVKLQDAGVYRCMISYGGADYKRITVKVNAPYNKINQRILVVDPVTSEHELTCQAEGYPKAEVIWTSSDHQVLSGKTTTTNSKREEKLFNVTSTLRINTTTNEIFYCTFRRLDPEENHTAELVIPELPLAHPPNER

B1: anti-PD-L1 IgG1 (parental antibody of Example 3) (antibody, V domains shown)
VH: EVQLQQSGAELVKPGASVKLSCTASGFNIKDTYMYWVKQRPEQGLECIGRIDPANDNTKYDPKFQGKATITADTSSNTAYVQLASLTSEDTAVYYCARAKNLLNYFDYWGQGTTLTVSS
VL: DIQMTQSPSSLSASLGERVTLSCRASQEISGYLSWLQQKPDGTIKRLIYATSTLDSGVPKRFSGSRSGSDYSLTISSLESEDFADYYCLQYAIYPLTFGAGTKLELKR
notes: IgG1; also called parental control antibody
koff: 2.72e-05 s⁻¹
